Target: IL-10Rα receptor on MC/9 mouse mast cells (mouse) (UniProt Q61727)
Experiment: cell-based or functional assay

UniProt Q61727, sequence (Q61727 17-575): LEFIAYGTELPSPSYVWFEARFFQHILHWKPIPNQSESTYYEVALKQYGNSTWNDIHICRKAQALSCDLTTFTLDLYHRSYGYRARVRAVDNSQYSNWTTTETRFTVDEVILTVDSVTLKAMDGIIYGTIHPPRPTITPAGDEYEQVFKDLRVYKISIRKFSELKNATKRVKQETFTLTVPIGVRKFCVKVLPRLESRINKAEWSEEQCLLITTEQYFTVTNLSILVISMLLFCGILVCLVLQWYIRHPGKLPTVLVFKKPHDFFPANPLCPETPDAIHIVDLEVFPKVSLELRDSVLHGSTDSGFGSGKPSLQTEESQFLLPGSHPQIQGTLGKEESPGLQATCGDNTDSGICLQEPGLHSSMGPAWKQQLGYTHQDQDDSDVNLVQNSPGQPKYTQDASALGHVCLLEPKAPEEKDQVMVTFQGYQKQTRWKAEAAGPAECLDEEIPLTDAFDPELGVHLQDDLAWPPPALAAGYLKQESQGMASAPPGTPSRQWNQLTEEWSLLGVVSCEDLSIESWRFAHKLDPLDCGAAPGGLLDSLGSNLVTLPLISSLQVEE

half maximal effective concentration (EC50), proliferation of MC/9 cells in the presence of IL4 (Alamar Blue): 91.7 pM
Substance: recombinant human IL-10 (Peprotech catalog number 200-10) (from UniProt P22301 19-178) (ligand)

From patent US20240034764A1
